Residue numbers refer to the chain shown, from its start. In names and notes the source's numbering stands.
B1: Salmonella typhimurium QAPRTase R118A (enzyme)
chain: MPPRRYNPDDRRDALLERINLDIPAAVAQALREDLGGEVDAGNDITAQLLPADTQAHATVITREDGVFCGKRWVEEVFIQLAGDDVRLTWHVDDGDAIHANQTVFELNGPARVLLTGEATALNFVQTLSGVASEVRRYVGLLAGTQTQLLDTRKTLPGLRTALKYAVLCGGGANHRLGLTDAFLIKENHIIASGSVRQAVEKAFWLHPDVPVEVEVENLDELDDALKAGADIIMLDNFNTDQMREAVKRVNGQARLEVSGNVTAETLREFAETGVDFISVGALTKHVRALDLSMRFC
B2: Salmonella typhimurium QAPRTase R152A (enzyme)
chain: B1 chain with A119R, R153A
B3: Salmonella typhimurium QAPRTase H188A (enzyme)
chain: B1 chain with A119R, H189A
B4: Salmonella typhimurium QAPRTase K185A (enzyme)
chain: B1 chain with A119R, K186A
B5: Salmonella typhimurium QAPRTase R175A (enzyme)
chain: B1 chain with A119R, R176A

Molecular target: the molecule itself
Assay: SEC

Protein	stoichiometry N
B1	2
B2	2
B3	2
B4	2
B5	2

Reference: article PMC2837848 (Biochemistry, 2010)
